Test [1] concerns the target NHP NPC1-C (Colobus guereza). The test is described as follows: BLI; pH 5.5. A general note: BLI is a label-free optical method that tracks binding on a fibre tip over time.
For test [2], the target named is T1, soluble human NPC1 domain C protein (UniProt O15118 372-622).
T1 chain: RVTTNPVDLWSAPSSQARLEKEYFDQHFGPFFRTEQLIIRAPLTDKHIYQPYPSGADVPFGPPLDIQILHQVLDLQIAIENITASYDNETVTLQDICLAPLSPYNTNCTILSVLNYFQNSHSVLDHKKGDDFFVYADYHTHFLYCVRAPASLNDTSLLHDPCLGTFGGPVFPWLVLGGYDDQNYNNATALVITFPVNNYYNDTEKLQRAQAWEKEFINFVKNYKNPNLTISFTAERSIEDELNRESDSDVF
Nature of the test: BLI; pH 7.5.

Test [3] deals with T1, soluble human NPC1 domain C protein. Nature of the test: BLI; pH 5.5.
Test [4] shares this target. The test is described as follows: BLI; pH 7.5.

Drawing on US20200199202A1 (published 2020), this text covers Kd for two molecules.

Where only a bound is given, the exact number is not on record here.

B1: 548 (antibody, V domains shown)
VH: EVQLQQSGAELVKPGASVKLSCTASGFNIKDTYMHWVKQRPEEGLEWIGRIDPADGNTEYVPKFQGKATITADTFSNTVYLQLSGLTSEDTAVYYCSRGYYWGQGTTLTVSS
VL: DIQMTQSPASLSASVGETVTITCRASENIYSYLAWYQQKQGKSPQLLVYNAKTLAEGVPSRFSGSGSGTQFSLKINSLQPEDFGIYYCQHHYGSPWAFGGGTKLEIK
Consider B1, for which the Kd – broadly, the concentration at which binding is half-saturated – in test [1] is below 1 pM.

B2: mAb 548 (anti-human NPC1 domain C monoclonal antibody) (antibody, V domains shown)
VH: B1 VH
VL: B1 VL
On to B2, for which the Kd in test [2], in test [3] and in test [4] was below 1 pM each time.
